Results reported in article PMC5130018 (2016).

B1: WH-biotin (peptide WH with GGGK-biotin at the carboxyl terminal) [modified: biotin on the C-terminal lysine (GGGK-biotin); biotin on the C-terminal lysine (GGGK-biotin)] / mouse Clec9a expressed on HEK-293T cells (pIRES2-EGFP-mClec9a) … (parent complex)
chain 1: WPRFHSSVFHTHGGGK
chain 2: MHAEEIYTSLQWDIPTSEASQKCQSPSKCSGAWCVVTMISCVVCMGLLATSIFLGIKFFQVSSLVLEQQERLIQQDTALVNLTQWQRKYTLEYCQALLQRSLHSGTDASTGPVLLTSPQMVPQTLDSKETGSDCSPCPHNWIQNGKSCYYVFERWEMWNISKKSCLKEGASLFQIDSKEEMEFISSIGKLKGGNKYWVGVFQDGISGSWFWEDGSSPLSDLLPAERQRSAGQICGYLKDSTLISDKCDSWKYFICEKKAFGSCI

Variants of: B1
Assay: flow cytometry on cells; parent: 49.6

response | Variant
45.4 % of cells in upper-right quadrant (SA+ EGFP+) | chain 2 Y252A
69.6 % of cells in upper-right quadrant (SA+ EGFP+) | chain 2 R154A
74.2 % of cells in upper-right quadrant (SA+ EGFP+) | chain 2 M157A
52.5 % of cells in upper-right quadrant (SA+ EGFP+) | chain 2 W155A
11.3 % of cells in upper-right quadrant (SA+ EGFP+) | chain 2 D248A
50.6 % of cells in upper-right quadrant (SA+ EGFP+) | chain 2 I160A
7.85 % of cells in upper-right quadrant (SA+ EGFP+) | chain 2 W250A
